Source: the supplement of paper PMC9112550, “Optimization of the antimicrobial peptide Bac7 by deep mutational scanning” (BMC Biology, 2022)

Test system: Escherichia coli TOP10
Assay: shrunken log2 fold change of peptide-encoding DNA abundance (4.5 h post-induction vs induction); higher = less antimicrobial activity (less host growth inhibition)
Conditions: time post-induction: 4.5 h; library: site-saturation at positions 5, 18, 19, 20
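Also: peptides expressed intracellularly from a pBAD plasmid library in pooled LB shake-flask culture, induced with 0.3% L-arabinose, DNA abundance read by NGS, three biological replicates, DESeq2 with apeglm shrinkage.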

Sequence	shrunken log2 fold change
RRIRKRPPRLPRPRPRPFGMPRP	-0.00211
RRIRARPPRLPRPRPRPLQEPRP	0.604
RRIRWRPPRLPRPRPRPEPIPRP	0.204
RRIRGRPPRLPRPRPRPMDLPRP	0.241
RRIRMRPPRLPRPRPRPPFKPRP	0.173
RRIRTRPPRLPRPRPRPMVCPRP	0.0039
RRIRVRPPRLPRPRPRPECEPRP	0.605
RRIRQRPPRLPRPRPRPQDYPRP	-0.685
RRIRIRPPRLPRPRPRPPLTPRP	-0.0194
RRIRHRPPRLPRPRPRPFVEPRP	-0.45
RRIRVRPPRLPRPRPRPGGKPRP	0.171
RRIRSRPPRLPRPRPRPHGWPRP	-0.107
RRIRIRPPRLPRPRPRPQWHPRP	-0.381
RRIRRRPPRLPRPRPRPPGLPRP	0.658
RRIRTRPPRLPRPRPRPVPMPRP	-0.299
RRIRFRPPRLPRPRPRPCDLPRP	-0.142
RRIRIRPPRLPRPRPRPCVYPRP	-0.227
RRIRGRPPRLPRPRPRPWMHPRP	-0.00858
RRIRIRPPRLPRPRPRPWAMPRP	-0.493
RRIRPRPPRLPRPRPRPKGPPRP	0.641
RRIRDRPPRLPRPRPRPNSQPRP	-0.283
RRIRDRPPRLPRPRPRPWRNPRP	-0.0018
RRIRARPPRLPRPRPRPNKDPRP	-0.294
RRIRYRPPRLPRPRPRPLFHPRP	-0.818
RRIRARPPRLPRPRPRPPCRPRP	0.517

Sequence	shrunken log2 fold change
RRIRTRPPRLPRPRPRPQFQPRP	0.183
RRIRTRPPRLPRPRPRPTRYPRP	0.228
RRIRVRPPRLPRPRPRPMHGPRP	0.00623
RRIRRRPPRLPRPRPRPTLVPRP	0.315
RRIRTRPPRLPRPRPRPFDYPRP	-0.0205
RRIRFRPPRLPRPRPRPEFLPRP	0.0354
RRIRYRPPRLPRPRPRPLPYPRP	-0.156
RRIRERPPRLPRPRPRPHSEPRP	-0.148
RRIRSRPPRLPRPRPRPLFKPRP	-0.127
RRIRFRPPRLPRPRPRPTDKPRP	0.00702
RRIRVRPPRLPRPRPRPHRTPRP	-0.16
RRIRSRPPRLPRPRPRPQLMPRP	-0.1
RRIRARPPRLPRPRPRPVEHPRP	0.068
RRIRLRPPRLPRPRPRPSGRPRP	0.448
RRIRDRPPRLPRPRPRPEITPRP	0.0482
RRIRVRPPRLPRPRPRPKSCPRP	-0.113
RRIRYRPPRLPRPRPRPRVIPRP	-0.0396
RRIRCRPPRLPRPRPRPAVQPRP	-0.0829
RRIRIRPPRLPRPRPRPATKPRP	-0.195
RRIRTRPPRLPRPRPRPYQNPRP	-0.3
RRIRWRPPRLPRPRPRPVNVPRP	-0.328
RRIRPRPPRLPRPRPRPQVPPRP	0.0319
RRIRSRPPRLPRPRPRPCFLPRP	-0.642
RRIRNRPPRLPRPRPRPPMYPRP	-0.25
RRIRGRPPRLPRPRPRPTFQPRP	0.59

Sequence	shrunken log2 fold change
RRIRRRPPRLPRPRPRPQNFPRP	-0.149
RRIRSRPPRLPRPRPRPEADPRP	0.688
RRIRHRPPRLPRPRPRPSIIPRP	-0.237
RRIRKRPPRLPRPRPRPHCVPRP	-0.0287
RRIRLRPPRLPRPRPRPQTEPRP	-0.0579
RRIRDRPPRLPRPRPRPANRPRP	-0.0377
RRIRNRPPRLPRPRPRPMMDPRP	-0.425
RRIRIRPPRLPRPRPRPQCHPRP	-0.594
RRIRFRPPRLPRPRPRPECNPRP	0.0687
RRIRCRPPRLPRPRPRPQYMPRP	-0.784
RRIRSRPPRLPRPRPRPVGEPRP	0.332
RRIRGRPPRLPRPRPRPPFIPRP	0.627
RRIRPRPPRLPRPRPRPEWQPRP	0.137
RRIRCRPPRLPRPRPRPNACPRP	-0.0874
RRIRVRPPRLPRPRPRPEVKPRP	0.0366
RRIRVRPPRLPRPRPRPCYCPRP	-0.32
RRIRTRPPRLPRPRPRPIDKPRP	-0.175
RRIRIRPPRLPRPRPRPRWSPRP	0.0458
RRIRRRPPRLPRPRPRPMSRPRP	-0.0357
RRIRWRPPRLPRPRPRPQDRPRP	-0.0199
RRIRERPPRLPRPRPRPTLKPRP	-0.197
RRIRSRPPRLPRPRPRPGMFPRP	0.107
RRIRSRPPRLPRPRPRPYFWPRP	-0.538
RRIRGRPPRLPRPRPRPAWSPRP	0.929
RRIRYRPPRLPRPRPRPIMCPRP	-0.197

Sequence	shrunken log2 fold change
RRIRSRPPRLPRPRPRPDTQPRP	-0.00981
RRIRRRPPRLPRPRPRPWNSPRP	0.0625
RRIRSRPPRLPRPRPRPHQMPRP	-0.207
RRIRGRPPRLPRPRPRPSHTPRP	-0.102
RRIRQRPPRLPRPRPRPLTCPRP	-0.539
RRIRWRPPRLPRPRPRPYQIPRP	0.0326
RRIRPRPPRLPRPRPRPHLIPRP	-0.287
RRIRKRPPRLPRPRPRPHECPRP	0.286
RRIRLRPPRLPRPRPRPEPKPRP	0.238
RRIRNRPPRLPRPRPRPPRPPRP	0.704
RRIRMRPPRLPRPRPRPYSQPRP	-0.0394
RRIRERPPRLPRPRPRPGNCPRP	0.13
RRIRRRPPRLPRPRPRPGEEPRP	0.139
RRIRFRPPRLPRPRPRPWGQPRP	0.0397
RRIRMRPPRLPRPRPRPHVIPRP	0.00402
RRIRNRPPRLPRPRPRPMQSPRP	-0.0939
RRIRWRPPRLPRPRPRPDDKPRP	-0.139
RRIRPRPPRLPRPRPRPYWDPRP	-0.376
RRIRTRPPRLPRPRPRPQDQPRP	0.0516
RRIRGRPPRLPRPRPRPVTDPRP	0.394
RRIRMRPPRLPRPRPRPPTVPRP	0.593
RRIRCRPPRLPRPRPRPFAAPRP	0.308
RRIRQRPPRLPRPRPRPAPGPRP	0.417
RRIRPRPPRLPRPRPRPVQDPRP	-0.0784
RRIRFRPPRLPRPRPRPDGTPRP	-0.256

Sequence	shrunken log2 fold change
RRIRYRPPRLPRPRPRPEGQPRP	0.0448
RRIRKRPPRLPRPRPRPHCRPRP	-0.022
RRIRWRPPRLPRPRPRPSDSPRP	-0.0671
RRIRLRPPRLPRPRPRPKKNPRP	0.144
RRIRSRPPRLPRPRPRPVGAPRP	0.538
RRIRFRPPRLPRPRPRPYNNPRP	-1.15
RRIRNRPPRLPRPRPRPVNDPRP	-0.15
RRIRRRPPRLPRPRPRPAMNPRP	0.0496
RRIRPRPPRLPRPRPRPWFQPRP	-0.21
RRIRGRPPRLPRPRPRPHRYPRP	0.0948
RRIRHRPPRLPRPRPRPHWDPRP	-0.557
RRIRLRPPRLPRPRPRPFDRPRP	-0.38
RRIRTRPPRLPRPRPRPAWYPRP	-0.172
RRIRDRPPRLPRPRPRPDYSPRP	0.0125
RRIRARPPRLPRPRPRPELTPRP	1.38
RRIRARPPRLPRPRPRPFNCPRP	-0.357
RRIRKRPPRLPRPRPRPQTSPRP	-0.122
RRIRDRPPRLPRPRPRPFCGPRP	0.258
RRIRFRPPRLPRPRPRPCCGPRP	-0.221
RRIRCRPPRLPRPRPRPQITPRP	-0.639
RRIRHRPPRLPRPRPRPCCLPRP	-0.82
RRIRARPPRLPRPRPRPVCQPRP	0.58
RRIRYRPPRLPRPRPRPRRSPRP	-0.0446
RRIRDRPPRLPRPRPRPGHGPRP	-0.0236
RRIRFRPPRLPRPRPRPGCRPRP	0.00327
